B1: variant 6-51 (Fc fusion)
VHH: EVQLVESGGGLVQPGGSLRLSCAASGYTYSSYVMGWFRQAPGKEREFVAAISRFGSTYYADSVKGRFTISADNSKNTAYLQMNSLKPEDTAVYYCARDSGEHFWDSGYIDHWGQGTLVTVSS
B2: variant 6-62 (Fc fusion)
VHH: EVQLVESGGGLVQPGGSLRLSCAASGSTFSGNWMGWFRQAPGKEREFVAVISWTGGSTYYADSVKGRFTISADNSKNTAYLQMNSLKPEDTAVYYCATHNSLSGFDYWGQGTLVTVSS
B3: variant 6-84 (Fc fusion)
VHH: EVQLVESGGGLVQPGGSLRLSCAASGFTPDDYAMGWFRQAPGKEREFVAAINSGGSYTYYADSVKGRFTISADNSKNTAYLQMNSLKPEDTAVYYCARDRGPWGQGTLVTVSS
B4: variant 6-65 (Fc fusion)
VHH: EVQLVESGGGLVQPGGSLRLSCAASGLPFSTLHMGWFRQAPGKEREFVASLSIFGATGYADSVKGRFTISADNSKNTAYLQMNSLKPEDTAVYYCWMYYYDSSGYYGNYYYGMDVWGQGTLVTVSS
B5: variant 6-71 (Fc fusion)
VHH: EVQLVESGGGLVQPGGSLRLSCAASGITFSNDAMGWFRQAPGKEREFVAIITSSDTNDTTNYADSVKGRFTISADNSKNTAYLQMNSLKPEDTAVYYCARLHYYDSSGYFDYWGQGTLVTVSS
B6: variant 6-74 (Fc fusion)
VHH: EVQLVESGGGLVQPGGSLRLSCAASGFAFGDSWMGWFRQAPGKERELVAAITSGGSTDYADSVKGRFTISADNSKNTAYLQMNSLKPEDTAVYYCARGLLWFGELFGYWGQGTLVTVSS
B7: variant 6-66 (Fc fusion)
VHH: EVQLVESGGGLVQPGGSLRLSCAASGLTFSLFAMGWFRQAPGKERELVAAISSGGSTDYADSVKGRFTISADNSKNTAYLQMNSLKPEDTAVYYCARGNTKYYYDSSGYSSAFDYWGQGTLVTVSS
B8: variant 6-63 (Fc fusion)
VHH: EVQLVESGGGLVQPGGSLRLSCAASGQTFNMGWFRQAPGKEREFVAAIGSGGSTSYADSVKGRFTISADNSKNTAYLQMNSLKPEDTAVYYCWRLGNDYFDYWGQGTLVTVSS
notes: VHH-Fc
B9: variant 6-82 (Fc fusion)
VHH: EVQLVESGGGLVQPGGSLRLSCAASGSSLDAYGMGWFRQAPGKEREFVAAISWGGGSIYYADSVKGRFTISADNSKNTAYLQMNSLKPEDTAVYYCARLSQGMVALDYWGQGTLVTVSS
B10: variant 6-70 (Fc fusion)
VHH: EVQLVESGGGLVQPGGSLRLSCAASGFNLDDYADMGWFRQAPGKEREFVAAIGWGGGSTRYADSVKGRFTISADNSKNTAYLQMNSLKPEDTAVYYCAREILWFGEFGEPNVWGQGTLVTVSS
B11: variant 6-79 (Fc fusion)
VHH: EVQLVESGGGLVQPGGSLRLSCAASGSISSIDYMGWFRQAPGKEREGVSWISSSDGSTYYADSVKGRFTISADNSKNTAYLQMNSLKPEDTAVYYCARSPSFSQIYYYYYMDVWGQGTLVTVSS
B12: variant 6-99 (Fc fusion)
VHH: EVQLVESGGGLVQPGGSLRLSCAASGIPFRSRTMGWFRQAPGKEREFVAGISRSGASTAYADSVKGRFTISADNSKNTAYLQMNSLKPEDTAVYYCTHANDYGDYWGQGTLVTVSS
B13: variant 6-72 (Fc fusion)
VHH: EVQLVESGGGLVQPGGSLRLSCAASGSTLSINAMGWFRQAPGKEREFVAAIDWSGGSTAYADSVKGRFTISADNSKNTAYLQMNSLKPEDTAVYYCARDSSATRTGPDYWGQGTLVTVSS
B14: variant 6-102 (Fc fusion)
VHH: EVQLVESGGGLVQPGGSLRLSCAASGSSFSAYAMGWFRQAPGKEREFVSAIDSEGTTTYADSVKGRFTISADNSKNTAYLQMNSLKPEDTAVYYCAGDYNFWSGFDHWGQGTLVTVSS
B15: variant 6-68 (Fc fusion)
VHH: EVQLVESGGGLVQPGGSLRLSCAASGFTLSDRAMGWFRQAPGKEREYVAHITAGGLSNYADSVKGRFTISADNSKNTAYLQMNSLKPEDTAVYYCVHLASQTGAGYFDLWGQGTLVTVSS
B16: variant 6-90 (Fc fusion)
VHH: EVQLVESGGGLVQPGGSLRLSCAASGFPFSIWPMGWFRQAPGKEREFVAAVRWSSTYYADSVKGRFTISADNSKNTAYLQMNSLKPEDTAVYYCATGECDGGSCSLAYWGQGTLVTVSS
B17: variant 6-75 (Fc fusion)
VHH: EVQLVESGGGLVQPGGSLRLSCAASGGTFSTYWMGWFRQAPGKEREFVAAISRSGGNTYYADSVKGRFTISADNSKNTAYLQMNSLKPEDTAVYYCVRHSGTDGDSSFDYWGQGTLVTVSS
B18: variant 6-52 (Fc fusion)
VHH: EVQLVESGGGLVQPGGSLRLSCAASGDTYGSYWMGWFRQAPGKEREVVAAITSGGSTVYADSVKGRFTISADNSKNTAYLQMNSLKPEDTAVYYCARVDSRFDYWGQGTLVTVSS
B19: variant 6-97 (Fc fusion)
VHH: EVQLVESGGGLVQPGGSLRLSCAASGFTFSSLAMGWFRQAPGKEREFVAAITWSGDITNYADSVKGRFTITADNSKNTAYLQMNSLKPEDTAVYYCLRLSSSGFDHWGQGTLVTVSS
B20: variant 6-57 (Fc fusion)
VHH: EVQLVESGGGLVQPGGSLRLSCAASGLTFDDHSMGWFRQAPGKEREFVAAVPLSGNTYYADSVKGRFTISADNSKNTAYLQMNSLKPEDTAVYYCASFSGGPADFDYWGQGTLVTVSS
B21: variant 6-67 (Fc fusion)
VHH: EVQLVESGGGLVQPGGSLRLSCAASGSFSNYAMGWFRQAPGKEREFVAAISSSGALTSYADSVKGRFTISADNSKNTAYLQMNSLKPEDTAVYYCWIVGPGPLDGMDVWGQGTLVTVSS
B22: variant 6-54 (Fc fusion)
VHH: EVQLVESGGGLVQPGGSLRLSCAASGFEFENHWMGWFRQAPGKEREYVAHITAGGLSNYADSVKGRFTISADNSKNTAYLQMNSLKPEDTAVYYCGRHWGIYDSSGFSSFDYWGQGTLVTVSS
B23: variant 6-53 (Fc fusion)
VHH: EVQLVESGGGLVQPGGSLRLSCAASGISINTNVMGWFRQAPGKEREFVAAISTGSVTIYADSVKGRFTISADNSKNTAYLQMNSLKPEDTAVYYCARVDDFGYFDLWGQGTLVTVSS
B24: variant 6-103 (Fc fusion)
VHH: EVQLVESGGGLVQPGGSLRLSCAASGRTSSPIAMGWFRQAPGKEREPVAVRWSDDYTYYADSVKGRFTISADNSKNTAYLQMNSLKPEDTAVYYCAKKLGGYYAFDIWGQGTLVTVSS
B25: variant 6-81 (Fc fusion)
VHH: EVQLVESGGGLVQPGGSLRLSCAASGFIGNYHAMGWFRQAPGKEREFVAAVTWSGGTTNYADSVKGRFTISADNSKNTAYLQMNSLKPEDTAVYYCAREGYYYDSSGYPYYFDYWGQGTLVTVSS

Target: T1, Acro SARS-CoV-2 (COVID-19) S1 protein (SARS-CoV-2, UniProt P0DTC2 16-685)
T1 construct: also called SARS-CoV-2 S1
Experiment: SPR

Binder | Kd
B1 | 35.2 nM
B2 | 151 nM
B3 | 82.6 nM
B4 | 890 nM
B5 | 155 nM
B6 | 73.9 nM
B7 | 293 nM
B8 | 21.8 nM
B9 | 7.1 nM
B10 | 35.9 nM
B11 | 158 nM
B12 | 51.6 nM
B13 | 92.8 nM
B14 | 45.7 nM
B15 | 102 nM
B16 | 114 nM
B17 | 181 nM
B18 | 31.2 nM
B19 | 4070 nM
B20 | 205 nM
B21 | 55.6 nM
B22 | 144 nM
B23 | 140 nM
B24 | 23.6 nM
B25 | 12.9 nM
